# Test results from patent US20220372147A1 (UNIVERSIT T STUTTGART, published 2022).
# What was measured:
# [1] = target: T1, HER3 on HER3-expressing cancer cells (LIM1215, BT474) (UniProt P21860 20-1342, limits assumed); assay: flow cytometry on HER3-expressing LIM1215 cells, PE anti-human Fc
# T1 construct: whole, on cells; also called HER3-expressing LIM1215 cells; HER3-expressing BT474 cells
# [2] = target: T2, CD3 on CD3-expressing Jurkat cells (human, UniProt P07766 23-207); assay: flow cytometry on CD3-expressing Jurkat cells, PE anti-human Fc
# T2 construct: whole, on cells
# [3] = target: T1, HER3 on HER3-expressing cancer cells …; assay: cell-based or functional assay
# [4] = target: T1, HER3 on HER3-expressing cancer cells …; assay: flow cytometry on HER3-expressing BT474 cells, PE anti-human Fc
# [5] = target: T3, MET Fc fusion protein, extracellular domain (ECD) of MET (aa 25-787) (UniProt P08581 25-787); assay: ELISA, immobilized MET-Fc, anti-human Fab-HRP detection
# T3 construct: range 25-787; not shown: Fc part
# [6] = target: T4, His-tagged HER3 protein, extracellular domain (ECD) of HER3 (aa 21-643) (UniProt P21860 21-643); assay: ELISA, immobilized HER3-His, anti-human Fc-HRP detection
# T4 construct: range 21-643; also called HER3-His; not shown: His-tag
# [7] = target: T5, HER3-Fc fusion protein, extracellular domain (ECD) of HER3 (aa 21-643) fused to an Fc part (UniProt P21860 21-643); assay: ELISA, immobilized HER3-Fc, anti-His-HRP detection
# T5 construct: range 21-643; not shown: Fc part
# T3 sequence (P08581 25-787 limits assumed): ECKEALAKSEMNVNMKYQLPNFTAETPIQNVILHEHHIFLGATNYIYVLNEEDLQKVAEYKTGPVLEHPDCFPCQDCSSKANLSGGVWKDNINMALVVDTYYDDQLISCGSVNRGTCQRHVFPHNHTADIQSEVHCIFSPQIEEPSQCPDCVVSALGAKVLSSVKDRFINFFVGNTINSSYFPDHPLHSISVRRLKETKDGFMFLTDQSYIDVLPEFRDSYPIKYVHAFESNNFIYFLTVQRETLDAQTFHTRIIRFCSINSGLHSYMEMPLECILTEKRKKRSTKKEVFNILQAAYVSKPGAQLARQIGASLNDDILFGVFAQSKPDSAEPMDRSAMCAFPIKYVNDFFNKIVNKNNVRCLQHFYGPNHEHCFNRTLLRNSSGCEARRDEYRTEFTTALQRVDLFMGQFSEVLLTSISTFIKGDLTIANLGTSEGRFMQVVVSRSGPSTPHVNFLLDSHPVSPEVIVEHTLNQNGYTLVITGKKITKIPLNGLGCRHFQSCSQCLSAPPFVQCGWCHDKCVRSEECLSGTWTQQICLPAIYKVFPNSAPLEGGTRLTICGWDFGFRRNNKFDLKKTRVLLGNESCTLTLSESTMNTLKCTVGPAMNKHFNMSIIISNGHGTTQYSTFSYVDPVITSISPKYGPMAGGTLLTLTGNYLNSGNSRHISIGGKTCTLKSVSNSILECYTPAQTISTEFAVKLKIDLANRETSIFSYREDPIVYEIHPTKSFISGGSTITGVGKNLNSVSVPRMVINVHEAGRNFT
# T2 sequence (P07766 23-207): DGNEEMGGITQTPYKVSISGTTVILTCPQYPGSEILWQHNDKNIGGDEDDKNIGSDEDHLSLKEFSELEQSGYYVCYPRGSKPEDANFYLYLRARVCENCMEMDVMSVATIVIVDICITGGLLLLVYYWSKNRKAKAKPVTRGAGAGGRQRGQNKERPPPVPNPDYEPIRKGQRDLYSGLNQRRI
binder,measurement,setting,value
"bispecific, trivalent eIg-Fab4 targeting HER3 and CD3 (bispecific antibody) light 1: QAGLTQPPAVSVAPGQTASITCGRDNIGSRSVHWYQQKPGQAPVLVVYDDSDRPAGIPERFSGSNYENTATLTISRVEAGDEADYYCQVWGITSDHVVFGGGTKLTVLGQPKAAPSVTLFPPSSEELQANKATLVCLISDFYPGAVTVAWKADSSPVKAGVETTTPSKQSNNKYAASSYLSLTPEQWKSHRSYSCQVTHEGSTVEKTVAPTECS heavy 1: not shown light 2: not shown heavy 2: QVQLQQSGPGLVKPSQTLSLTCAISGDSVSSNRAAWNWIRQSPSRGLEWLGRTYYRSKWYNDYAQSLKSRITINPDTPKNQFSLQLNSVTPEDTAVYYCARDGQLGLDALDIWGQGTMVTVSSASTKGPSVFPLAPSSKSTSGGTAALGCLVKDYFPEPVTVSWNSGALTSGVHTFPAVLQSSGLYSLSSVVTVPSSSLGTQTYICNVNHKPSNTKVDKKVEPKSCGGSGGGGSGGQVQLVQSGAEVKKPGSSVKVSCKASGGTFSGYTMNWVRQAPGQGLEWMGLINPYKGVSTYNGKFKDRVTITADKSTSTAYMELSSLRSEDTAVYYCARSGYYGDSDWYFDVWGQGTLVTVSSDFTPPTVKILQSSCDGGGHFPPTIQLLCLVSGYTPGTINITWLEDGQVMDVDLSTASTTQEGELASTQSELTLSQKHWLSDRTYTCQVTYQGHTFEDSTKKSADSNGTDKTHTCPPCPAPPVAGPSVFLFPPKPKDTLMISRTPEVTCVVVDVSHEDPEVKFNWYVDGVEVHNAKTKPREEQYNSTYRVVSVLTVLHQDWLNGKEYKCKVSNKGLPSSIEKTISKAKGQPREPQVCTLPPSRDELTKNQVSLSCAVKGFYPSDIAVEWESNGQPENNYKTTPPVLDSDGSFFLVSKLTVDKSRWQQGNVFSCSVMHEALHNHYTQKSLSLSPGK",EC50,[1],0.21 nM
same,EC50,[2],5.9 nM
same,"EC50 value in cell killing (PBMC-mediated cytotoxicity on BT-474 cells, crystal violet)",[3],0.2 nM
same,"EC50 value in cell killing (PBMC-mediated cytotoxicity on LIM1215 cells, crystal violet)",[3],0.1 nM
same,EC50,[4],0.6 nM
"bispecific bivalent anti-cMET x anti-HER3 eIgG1 (EHD2 configuration HC1-LC2) (bispecific antibody, Four different polypeptide chains, knob-into-hole Fc) light 1: QAGLTQPPAVSVAPGQTASITCGRDNIGSRSVHWYQQKPGQAPVLVVYDDSDRPAGIPERFSGSNYENTATLTISRVEAGDEADYYCQVWGITSDHVVFGGGTKLTVLGQPKAAPSVTLFPPSSEELQANKATLVCLISDFYPGAVTVAWKADSSPVKAGVETTTPSKQSNNKYAASSYLSLTPEQWKSHRSYSCQVTHEGSTVEKTVAPTECS heavy 1: not shown heavy 2: not shown light 2: DIQMTQSPSSLSASVGDRVTITCKSSQSLLYTSSQKNYLAWYQQKPGKAPKLLIYWASTRESGVPSRFSGSGSGTDFTLTISSLQPEDFATYYCQQYYAYPWTFGQGTKVEIKRTDFTPPTVKILQSSCDGGGHFPPTIQLLCLVSGYTPGTINITWLEDGQVMDVDLSTASTTQEGELASTQSELTLSQKHWLSDRTYTCQVTYQGHTFEDSTKKSADSN",EC50,[5],3.8 nM
same,EC50,[6],1 nM
"bispecific, trivalent eIg-Fab2 targeting HER3 and CD3 (bispecific antibody) light 1: QAGLTQPPAVSVAPGQTASITCGRDNIGSRSVHWYQQKPGQAPVLVVYDDSDRPAGIPERFSGSNYENTATLTISRVEAGDEADYYCQVWGITSDHVVFGGGTKLTVLGQPKAAPSVTLFPPSSEELQANKATLVCLISDFYPGAVTVAWKADSSPVKAGVETTTPSKQSNNKYAASSYLSLTPEQWKSHRSYSCQVTHEGSTVEKTVAPTECS light 2: not shown heavy 1: not shown heavy 2: not shown",EC50,[1],1.3 nM
same,EC50,[2],0.2 nM
same,EC50,[4],1.7 nM
"bispecific bivalent anti-cMET x anti-HER3 eIgG2 (EHD2 configuration HC2-LC1) (bispecific antibody, Four different polypeptide chains, knob-into-hole Fc) light 1: QAGLTQPPAVSVAPGQTASITCGRDNIGSRSVHWYQQKPGQAPVLVVYDDSDRPAGIPERFSGSNYENTATLTISRVEAGDEADYYCQVWGITSDHVVFGGGTKLTVLGQPKAAPSVTLFPPSSEELQANKATLVCLISDFYPGAVTVAWKADSSPVKAGVETTTPSKQSNNKYAASSYLSLTPEQWKSHRSYSCQVTHEGSTVEKTVAPTECS heavy 1: not shown heavy 2: not shown light 2: DIQMTQSPSSLSASVGDRVTITCKSSQSLLYTSSQKNYLAWYQQKPGKAPKLLIYWASTRESGVPSRFSGSGSGTDFTLTISSLQPEDFATYYCQQYYAYPWTFGQGTKVEIKRTDFTPPTVKILQSSSDGGGHFPPTIQLLCLVSGYTPGTIQITWLEDGQVMDVDLSTASTTQEGELASTQSELTLSQKHWLSDRTYTCQVTYQGHTFEDSTKKCADSN",EC50,[5],5.4 nM
same,EC50,[6],1.4 nM
"Fv3-43-hetEHD2 eFab molecule 8 (C102T Fd; C14T,N39Q light chain) (Fab, V domains shown, Monovalent anti-HER3 Fab-like molecule; His-tag on the Fd chain) VH: QVQLQQSGPGLVKPSQTLSLTCAISGDSVSSNRAAWNWIRQSPSRGLEWLGRTYYRSKWYNDYAQSLKSRITINPDTPKNQFSLQLNSVTPEDTAVYYCARDGQLGLDALDIWGQGTMVTVSS VL: QAGLTQPPAVSVAPGQTASITCGRDNIGSRSVHWYQQKPGQAPVLVVYDDSDRPAGIPERFSGSNYENTATLTISRVEAGDEADYYCQVWGITSDHVVFGGGTKLTVLD",EC50,[7],6.2 nM
"bivalent and monospecific eIg molecule targeting HER3 (antibody, V domains shown, Homodimerizing Fc; also called monospecific, bivalent eIg antibody; anti-HER3 bivalent eIg) VH: QVQLQQSGPGLVKPSQTLSLTCAISGDSVSSNRAAWNWIRQSPSRGLEWLGRTYYRSKWYNDYAQSLKSRITINPDTPKNQFSLQLNSVTPEDTAVYYCARDGQLGLDALDIWGQGTMVTVSS VL: QAGLTQPPAVSVAPGQTASITCGRDNIGSRSVHWYQQKPGQAPVLVVYDDSDRPAGIPERFSGSNYENTATLTISRVEAGDEADYYCQVWGITSDHVVFGGGTKLTVLG",EC50,[6],1.4 nM
"Fv3-43-hetEHD2 eFab molecule 9 (C102S Fd; C14S,N39Q light chain) (Fab, V domains shown, N-glycan only on the Fd EHD2-2 domain; also called originally used eFab (C14S,N39Q:N39,C102S)) VH: QVQLQQSGPGLVKPSQTLSLTCAISGDSVSSNRAAWNWIRQSPSRGLEWLGRTYYRSKWYNDYAQSLKSRITINPDTPKNQFSLQLNSVTPEDTAVYYCARDGQLGLDALDIWGQGTMVTVSS VL: QAGLTQPPAVSVAPGQTASITCGRDNIGSRSVHWYQQKPGQAPVLVVYDDSDRPAGIPERFSGSNYENTATLTISRVEAGDEADYYCQVWGITSDHVVFGGGTKLTVLD",EC50,[7],3.7 nM
"Fv3-43-hetEHD2 eFab molecule 4 (C102T Fd; C14N,N39Q light chain) (Fab, V domains shown, Monovalent anti-HER3 Fab-like molecule; His-tag on the Fd chain; also called C14N,N39Q:N39,C102T) VH: QVQLQQSGPGLVKPSQTLSLTCAISGDSVSSNRAAWNWIRQSPSRGLEWLGRTYYRSKWYNDYAQSLKSRITINPDTPKNQFSLQLNSVTPEDTAVYYCARDGQLGLDALDIWGQGTMVTVSS VL: QAGLTQPPAVSVAPGQTASITCGRDNIGSRSVHWYQQKPGQAPVLVVYDDSDRPAGIPERFSGSNYENTATLTISRVEAGDEADYYCQVWGITSDHVVFGGGTKLTVLD",EC50,[7],3 nM
"Fv3-43-hetEHD2 eFab molecule 1 (C102A Fd; C14A,N39Q light chain) (Fab, V domains shown, Monovalent anti-HER3 Fab-like molecule; His-tag on the Fd chain; also called C14A,N39Q:N39,C102A) VH: QVQLQQSGPGLVKPSQTLSLTCAISGDSVSSNRAAWNWIRQSPSRGLEWLGRTYYRSKWYNDYAQSLKSRITINPDTPKNQFSLQLNSVTPEDTAVYYCARDGQLGLDALDIWGQGTMVTVSS VL: QAGLTQPPAVSVAPGQTASITCGRDNIGSRSVHWYQQKPGQAPVLVVYDDSDRPAGIPERFSGSNYENTATLTISRVEAGDEADYYCQVWGITSDHVVFGGGTKLTVLD",EC50,[7],12.1 nM
"Fv3-43-hetEHD2 eFab molecule 3 (C102N Fd; C14A,N39Q light chain) (Fab, V domains shown, Monovalent anti-HER3 Fab-like molecule; His-tag on the Fd chain; also called C14A,N39Q:N39,C102N) VH: QVQLQQSGPGLVKPSQTLSLTCAISGDSVSSNRAAWNWIRQSPSRGLEWLGRTYYRSKWYNDYAQSLKSRITINPDTPKNQFSLQLNSVTPEDTAVYYCARDGQLGLDALDIWGQGTMVTVSS VL: QAGLTQPPAVSVAPGQTASITCGRDNIGSRSVHWYQQKPGQAPVLVVYDDSDRPAGIPERFSGSNYENTATLTISRVEAGDEADYYCQVWGITSDHVVFGGGTKLTVLD",EC50,[7],4.8 nM
"Fv3-43-hetEHD2 eFab molecule 2 (C102W Fd; C14T,N39Q light chain) (Fab, V domains shown, Monovalent anti-HER3 Fab-like molecule; His-tag on the Fd chain) VH: QVQLQQSGPGLVKPSQTLSLTCAISGDSVSSNRAAWNWIRQSPSRGLEWLGRTYYRSKWYNDYAQSLKSRITINPDTPKNQFSLQLNSVTPEDTAVYYCARDGQLGLDALDIWGQGTMVTVSS VL: QAGLTQPPAVSVAPGQTASITCGRDNIGSRSVHWYQQKPGQAPVLVVYDDSDRPAGIPERFSGSNYENTATLTISRVEAGDEADYYCQVWGITSDHVVFGGGTKLTVLD",EC50,[7],7.3 nM
"Fv3-43-hetEHD2 eFab molecule 6 (C102N Fd; C14T,N39Q light chain) (Fab, V domains shown, Monovalent anti-HER3 Fab-like molecule; His-tag on the Fd chain; also called C14T,N39Q:N39,C102N) VH: QVQLQQSGPGLVKPSQTLSLTCAISGDSVSSNRAAWNWIRQSPSRGLEWLGRTYYRSKWYNDYAQSLKSRITINPDTPKNQFSLQLNSVTPEDTAVYYCARDGQLGLDALDIWGQGTMVTVSS VL: QAGLTQPPAVSVAPGQTASITCGRDNIGSRSVHWYQQKPGQAPVLVVYDDSDRPAGIPERFSGSNYENTATLTISRVEAGDEADYYCQVWGITSDHVVFGGGTKLTVLD",EC50,[7],4.1 nM
"Fv3-43-hetEHD2 eFab molecule 7 (C102T Fd; C14W,N39Q light chain) (Fab, V domains shown, Monovalent anti-HER3 Fab-like molecule; His-tag on the Fd chain) VH: QVQLQQSGPGLVKPSQTLSLTCAISGDSVSSNRAAWNWIRQSPSRGLEWLGRTYYRSKWYNDYAQSLKSRITINPDTPKNQFSLQLNSVTPEDTAVYYCARDGQLGLDALDIWGQGTMVTVSS VL: QAGLTQPPAVSVAPGQTASITCGRDNIGSRSVHWYQQKPGQAPVLVVYDDSDRPAGIPERFSGSNYENTATLTISRVEAGDEADYYCQVWGITSDHVVFGGGTKLTVLD",EC50,[7],7.1 nM
"Fv3-43-hetEHD2 eFab molecule 5 (C102A Fd; C14W,N39Q light chain) (Fab, V domains shown, Monovalent anti-HER3 Fab-like molecule; His-tag on the Fd chain) VH: QVQLQQSGPGLVKPSQTLSLTCAISGDSVSSNRAAWNWIRQSPSRGLEWLGRTYYRSKWYNDYAQSLKSRITINPDTPKNQFSLQLNSVTPEDTAVYYCARDGQLGLDALDIWGQGTMVTVSS VL: QAGLTQPPAVSVAPGQTASITCGRDNIGSRSVHWYQQKPGQAPVLVVYDDSDRPAGIPERFSGSNYENTATLTISRVEAGDEADYYCQVWGITSDHVVFGGGTKLTVLD",EC50,[7],11 nM
